Test results as given in patent US20120100561A1 (published 2012).

Target: T1, Flag-PKN3 wt (N-terminal Flag epitope-tagged full-length kinase active human PKN3) (human, UniProt Q6P5Z2 1-889)
T1 construct: Expressed from pcDNA3 in HEK293T or PC3 cells and pulled down with anti-Flag M2 resin; The kinase-dead version carries K588R; also called Flag-tagged PKN3; kinase-active form of PKN3
Assay: anti-Flag M2 co-immunoprecipitation from transfected HEK293T cells, Western blot
Protocol: Thus, PKN3, RhoC and PDK1 form a ternary complex (“PPRC complex.”)
For immunoprecipitations with Flag (FIG. 4B), HEK293T cells (5×10⁵ cells/10-cm tissue culture dish) were either singly transfected or cotransfected with the indicated plasmids (Flag-PKN3 wt [full-length kinase active], Flag-PKN3 kd [kinase-dead PKN3], Myc-RhoA, Myc-RhoB or Myc-RhoC) by FUGENE® transfection reagent. After 6 hours of incubation at 37° C. in a 5% CO₂ incubator, cells were washed twice in serum-free Dulbecco's modified Eagle's medium (DMEM), and fresh medium (DMEM, 10% fetal bovine serum) was added to the cells for a further 48 h of incubation. Cells were washed with phosphate-buffered saline (PBS) and lysed in 0.5 ml of lysis buffer (50 mM Tris-HCl [pH 7.5], 150 mM NaCl, 10 mM β-glycerolphosphate, 10% glycerol, 1% Triton X-100, 1 mM Na₃VO₄, 1 mM NaF, and protease inhibitors [Roche Molecular Biochemicals]) for 30 minutes on ice. […] The beads were then washed three times with TBS buffer (50 mM Tris-HCl [pH 7.5], 150 mM NaCl), and bound proteins were eluted with TBS buffer containing 10% glycerol, 1 mM DTT and 200 μg of Flag peptide (Sigma)/ml. The bound products were visualized by Western blot analysis (FIG. 4).

T1 sequence (Q6P5Z2 other isoform, or with tags, fused parts or gaps limits assumed): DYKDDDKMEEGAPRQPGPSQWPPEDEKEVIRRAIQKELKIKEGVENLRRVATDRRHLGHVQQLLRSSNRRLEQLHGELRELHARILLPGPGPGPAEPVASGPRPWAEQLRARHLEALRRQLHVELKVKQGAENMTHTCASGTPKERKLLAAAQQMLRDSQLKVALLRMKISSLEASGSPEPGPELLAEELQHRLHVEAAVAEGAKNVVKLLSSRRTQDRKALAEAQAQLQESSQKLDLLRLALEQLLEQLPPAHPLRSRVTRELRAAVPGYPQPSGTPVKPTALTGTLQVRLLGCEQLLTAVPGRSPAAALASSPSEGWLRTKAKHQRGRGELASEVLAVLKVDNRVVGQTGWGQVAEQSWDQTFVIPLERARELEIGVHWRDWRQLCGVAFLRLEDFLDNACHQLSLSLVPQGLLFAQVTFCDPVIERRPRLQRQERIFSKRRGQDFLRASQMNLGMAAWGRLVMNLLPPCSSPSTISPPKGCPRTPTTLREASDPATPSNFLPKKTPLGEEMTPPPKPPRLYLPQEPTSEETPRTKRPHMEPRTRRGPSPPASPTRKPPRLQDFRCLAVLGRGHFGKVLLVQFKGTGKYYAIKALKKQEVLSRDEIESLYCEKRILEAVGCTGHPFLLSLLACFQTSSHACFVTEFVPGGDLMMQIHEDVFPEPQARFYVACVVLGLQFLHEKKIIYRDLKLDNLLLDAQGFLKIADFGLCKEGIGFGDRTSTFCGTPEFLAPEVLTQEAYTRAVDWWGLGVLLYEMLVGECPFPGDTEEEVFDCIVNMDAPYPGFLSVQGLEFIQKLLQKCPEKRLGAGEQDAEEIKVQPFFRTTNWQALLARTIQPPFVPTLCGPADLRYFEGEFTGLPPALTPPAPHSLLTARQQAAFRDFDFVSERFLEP

binding result: binds
B1: phosphoinositide-dependent kinase-1 (PDK1) (enzyme, UniProt O15530 1-556, looked up)
chain: MARTTSQLYDAVPIQSSVVLCSCPSPSMVRTQTESSTPPGIPGGSRQGPAMDGTAAEPRPGAGSLQHAQPPPQPRKKRPEDFKFGKILGEGSFSTVVLARELATSREYAIKILEKRHIIKENKVPYVTRERDVMSRLDHPFFVKLYFTFQDDEKLYFGLSYAKNGELLKYIRKIGSFDETCTRFYTAEIVSALEYLHGKGIIHRDLKPENILLNEDMHIQITDFGTAKVLSPESKQARANSFVGTAQYVSPELLTEKSACKSSDLWALGCIIYQLVAGLPPFRAGNEYLIFQKIIKLEYDFPEKFFPKARDLVEKLLVLDATKRLGCEEMEGYGPLKAHPFFESVTWENLHQQTPPKLTAYLPAMSEDDEDCYGNYDNLLSQFGCMQVSSSSSSHSLSASDTGLPQRSGSNIEQYIHDLDSNSFELDLQFSEDEKRLLLEKQAGGNPWHQFVENNLILKMGPVDKRKGLFARRRQLLLTEGPHLYYVDPVNKVLKGEIPWSQELRPEAKNFKTFFVHTPNRTYYLMDPSGNAHKWCRKIQEVWRQRYQSHPDAAVQ
notes: It co-precipitated with Flag-PKN3 from cell lysates
